Values of other authors as cited in patent US6468959B1, “Peroral dosage form for peptide containing medicaments, in particular insulin” (ALFATEC-Pharm GmbH, priority 1991, dated 2002).

Details: weakly acid environments of pH 3 to 4 and at pH 7 to 8

For insulin, the solubility is listed as “soluble” and the stability is listed as “adequately stable”.
